Molecular target: Ca2+
Test: in situ Ca2+ titration of FRET with mNGΔN5-SOAR1L
Settings: 25 µM digitonin, 10 µM ionomycin, EGTA

- Kd (cells transfected with CasRx-P4HB (P4HB knockdown), Hill n 2.8±0.09): 740 µM
- Kd (cells transfected with CasRx-PDIA3 (PDIA3 knockdown), Hill n 2.8±0.12): 750 µM
- Kd (cells transfected with control CasRx, Hill n 2.7±0.12): 760 µM
Substance: STIM1 1-310-CFPΔC11 C49A; C56A

Reference: PMC11276767
